Test results as given in patent publication JP2007530675A (dated 2007).

What was measured:
[1] = target: T1, CS1 ECD-Fcγ3 fusion protein (human, UniProt Q9NQ25 23-226); assay: direct binding ELISA, plate coated with 1 μg/ml soluble human CS1-human Fcγ3 fusion protein
T1 construct: also called CS1-γ3; CS1-Fc-γ3; not shown: constant region of human IgG3 (human Fc-γ3) from the vector

[2] = target: T2, human CS1-Fc fusion protein (Biacore analyte) (human, UniProt Q9NQ25 23-226, limits assumed); assay: SPR (BIAcore 2000), antibody immobilised, CS1-Fc as analyte
T2 construct: kept apart; also called CS-Fc; not shown: Fc part

[3] = target: T1, CS1 ECD-Fcγ3 fusion protein; assay: ELISA on CS1-γ3 fusion protein
[4] = target: T3, mu25/hu75 chimeric CS1-Fc (human/mouse chimera; human, UniProt P01857-1 99-330 = IgG part, limits assumed); assay: sandwich ELISA, captured chimeric CS1-Fc
T3 construct: domain: Fc

[5] = target: T4, hu25/mu75 chimeric CS1-Fc (human/mouse chimera; human, UniProt P01857-1 99-330 = IgG part, limits assumed); assay: sandwich ELISA, captured chimeric CS1-Fc
T4 construct: domain: Fc

CS1 ECD-myc-GPI [6] = target: T5, CS1 ECD-myc-GPI (human, UniProt Q9NQ25 23-226, GPI linkage at the C-terminus); assay: FACS on NSO-CS1 transfectants
T5 construct: also called NSO-CS1; not shown: myc tag and GPI linkage signal of the myc-GPI vector

[7] = target: T6, full-length wild-type human CS1 (human, UniProt Q9NQ25 23-335); assay: FACS on K562 and Daudi cells
T6 construct: Native CS1 on K562 and Daudi cells, myeloma and B-cell lines, tonsil/synovial and patient plasma cells; also called SLAMF7; 19A

[8] = target: human CS1-Fc fusion protein (Biacore analyte) (human) (UniProt Q9NQ25); assay: SPR (BIAcore 2000), antibody immobilised, CS1-Fc as analyte, bivalent analyte model
CS1 ECD-myc-GPI [9] = target: T5, CS1 ECD-myc-GPI; assay: cell-based or functional assay

T4 sequence (P01857 other isoform, or with tags, fused parts or gaps mutant limits assumed): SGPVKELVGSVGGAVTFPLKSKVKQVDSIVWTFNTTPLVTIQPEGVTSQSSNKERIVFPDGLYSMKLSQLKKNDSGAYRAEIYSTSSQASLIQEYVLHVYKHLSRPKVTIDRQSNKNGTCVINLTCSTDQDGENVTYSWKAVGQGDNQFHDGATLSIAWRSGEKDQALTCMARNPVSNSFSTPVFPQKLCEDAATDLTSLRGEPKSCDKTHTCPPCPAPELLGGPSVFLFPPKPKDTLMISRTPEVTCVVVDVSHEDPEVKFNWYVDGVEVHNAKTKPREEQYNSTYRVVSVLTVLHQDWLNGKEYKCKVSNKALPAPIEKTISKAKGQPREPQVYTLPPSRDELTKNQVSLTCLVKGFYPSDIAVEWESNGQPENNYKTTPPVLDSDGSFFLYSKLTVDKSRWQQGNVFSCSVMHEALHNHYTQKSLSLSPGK
T3 sequence (P01857 other isoform, or with tags, fused parts or gaps mutant limits assumed): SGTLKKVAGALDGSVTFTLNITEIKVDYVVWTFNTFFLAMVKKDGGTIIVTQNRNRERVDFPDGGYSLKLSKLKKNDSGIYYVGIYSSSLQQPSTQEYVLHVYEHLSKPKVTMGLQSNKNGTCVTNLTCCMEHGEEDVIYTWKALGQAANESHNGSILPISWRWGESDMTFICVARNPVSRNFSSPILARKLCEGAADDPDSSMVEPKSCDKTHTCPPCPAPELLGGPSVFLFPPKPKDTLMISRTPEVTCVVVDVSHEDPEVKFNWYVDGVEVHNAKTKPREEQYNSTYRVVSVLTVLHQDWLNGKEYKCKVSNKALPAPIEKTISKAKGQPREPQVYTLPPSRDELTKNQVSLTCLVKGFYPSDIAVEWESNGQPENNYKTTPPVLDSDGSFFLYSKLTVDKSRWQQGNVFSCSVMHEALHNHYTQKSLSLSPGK

Binder	EC50 [1] [µg/mL]	binding result [4]	binding result [5]	also measured
Luc63 (antibody, V domains shown, mouse anti-human CS1 monoclonal, IgG2a; also called MuLuc63; muLuc63) VH: EVKLLESGGGLVQPGGSLKLSCAASGFDFSRYWMSWVRQAPGKGLEWIGEINPDSSTINYTPSLKDKFIISRDNAKNTLYLQMSKVRSEDTALYYCARPDGNYWYFDVWGAGTTVTVSS VL: DIVMTQSHKFMSTSVGDRVSITCKASQDVGIAVAWYQQKPGQSPKLLIYWASTRHTGVPDRFTGSGSGTDFTLTISNVQSEDLADYFCQQYSSYPYTFGGGTKLEIK	0.0661	–	–	–
Luc34 (antibody, V domains shown, mouse anti-human CS1 monoclonal; also called Luc34.1) VH: QVQLQQSGAELARPGASVKLSCKASGYTFTSYWMQWVKQRPGQGLEWIGAIYPGDGDTRYTQKFKGKATLTADKSSSTAYMQLSSLASEDSAVYYCARGKVYYGSNPFAYWGQGTLVTVSA VL: DIQMTQSSSYLSVSLGGRVTITCKASDHINNWLAWYQQKPGNAPRLLISGATSLETGVPSRFSGSGSGKDYTLSITSLQTEDVATYYCQQYWSTPWTFGGGTKLEIK	–	no binding (tested: 2 μg/ml)	no binding (tested: 2 μg/ml)	binding result [2]: binds; binding result [3]: binds; binding result (CS1 ECD-myc-GPI [6]): binds; binding result [7]: binds
HuLuc63 (antibody, human IgG1, V domains shown, human IgG1/κ, transiently expressed in 293-H cells; also called humanized Luc63) VH: EVQLVESGGGLVQPGGSLRLSCAASGFDFSRYWMSWVRQAPGKGLEWIGEINPDSSTINYAPSLKDKFIISRDNAKNSLYLQMNSLRAEDTAVYYCARPDGNYWYFDVWGQGTLVTVSS VL: DIQMTQSPSSLSASVGDRVTITCKASQDVGIAVAWYQQKPGKVPKLLIYWASTRHTGVPDRFSGSGSGTDFTLTISSLQPEDVATYYCQQYSSYPYTFGQGTKVEIK	0.0701	–	–	–
Luc90 (antibody, V domains shown, mouse anti-human CS1 monoclonal, IgG2b; also called Luc90.H1; Luc90H1) VH: QVQLQQPGAELVRPGASVKLSCKASGYSFTTYWMNWVKQRPGQGLEWIGMIHPSDSETRLNQKFKDKATLTVDKSSSTAYMQLSSPTSEDSAVYYCARSTMIATRAMDYWGQGTSVTVSS VL: DIVMTQSQKSMSTSVGDRVSITCKASQDVITGVAWYQQKPGQSPKLLIYSASYRYTGVPDRFTGSGSGTDFTFTISNVQAEDLAVYYCQQHYSTPLTFGAGTKLELK	–	no binding (tested: 2 μg/ml)	no binding (tested: 2 μg/ml)	fold higher binding affinity than Luc34.1 [8]: 28 fold; fold higher binding affinity than Luc63.2 [8]: 5.5 fold; 細胞傷害性(%) (ADCC, LDH release, PBMC effectors 20:1) (CS1 ECD-myc-GPI [9]): ~50%
Luc69 (antibody, V domains shown, mouse anti-human CS1 monoclonal) VH: QVQLQQSGPELVKPGASVKISCKASGYAFSNSWMNWVKQRPGQGLEWIGRIYPGDGDTKSNGKFKGKATLTADKSSRAAYMQLSSLTSVDSAVYFCARSTMIMTGAMDYWGQGTSVTVSS VL: DIVMTQSHKFMSTSVGDRVIITCKASQDVSTAVAWYQQKPGQSPKLLIYSASFRYTGVPDRFTGSGSGTDFTFTVSSVQAEDLAVYYCQQHYSTPPYTFGGGTKLEIK	–	no binding (tested: 2 μg/ml)	no binding (tested: 2 μg/ml)	–
